Data: patent US20220162310A1

Target: human TIGIT-Fc antigen (human) (UniProt Q495A1)
Assay: ELISA on plate-coated human TIGIT-Fc (3 ug/ml), scFv from 80 nM in 1/3 steps, anti-His-HRP, OD450; value is C of the printed 4-P fit; the sheet prints no unit, nM from paragraph 123

Chain of human TIGIT-Fc antigen (human) (Q495A1 22-141 T103A limits assumed): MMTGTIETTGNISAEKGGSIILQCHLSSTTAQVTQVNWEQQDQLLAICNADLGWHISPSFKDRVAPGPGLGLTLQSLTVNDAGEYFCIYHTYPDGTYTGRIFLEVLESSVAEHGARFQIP

EC50: 0.526 nM
B1: 1F10 (scFv-type anti-TIGIT antibody) (scFv, part only; not given: linker, domain order, His tag, V domains shown, not shown: another chain or arm of the molecule; small tags and cut ends)
VH: EVQLVESGGGLVKPGGSLRISCAASGFTFSNYNMIWVRQAPGKGLEWVSSISSSASYIYYADSVKGRFTISRDNAKNSLYLQMNSLRAEDTAVYYCARDEGSRDSWNNGPYYYSGMDVWGQGTTVTVSS
VL: AIQMTQSPSSLSASVGDRVTITCRASQSISRYLNWYQHKPGKAPKLLIYGASSLQSGVPSRFRGSGSGTDFTLTISSLQPEDFATYYCQQSYTTPGAFTFGGGTKVEIK
